Measured values taken from patent US20210032331A1 (PHANES THERAPEUTICS, published 2021).

T1: human LAG-3(ECD)-mFc (human, UniProt P18627 23-450)
T1 construct: also called hLAG3-mFc; human LAG-3 extracellular domain (ECD) fused to mouse Fc; not shown: mouse Fc
T1 sequence: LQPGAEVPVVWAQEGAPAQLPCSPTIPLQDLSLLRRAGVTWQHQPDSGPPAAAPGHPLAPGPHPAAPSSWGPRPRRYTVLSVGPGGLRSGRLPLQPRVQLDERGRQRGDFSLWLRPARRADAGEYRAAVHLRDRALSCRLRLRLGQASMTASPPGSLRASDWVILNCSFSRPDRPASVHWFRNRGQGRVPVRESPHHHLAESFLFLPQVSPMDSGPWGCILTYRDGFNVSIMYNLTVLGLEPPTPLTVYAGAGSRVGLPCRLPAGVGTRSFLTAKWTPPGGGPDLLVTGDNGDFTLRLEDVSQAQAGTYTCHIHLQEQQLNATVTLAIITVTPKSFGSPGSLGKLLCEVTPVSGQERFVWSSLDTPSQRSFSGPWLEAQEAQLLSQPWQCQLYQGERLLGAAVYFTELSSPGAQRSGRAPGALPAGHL

B1: B12 (human IgG1 heavy chain and kappa light chain chimeric) (antibody, V domains shown)
VH: EVKLLESGGSLVQPGGSLKLSCAASGFDFSRYWMSWVRQAPGKGLEWIGEINPDSSTINYTPSLRDEFIISRDNAKNTLFLQMSKVISEDTALYYCARITSGYYFDYWGQGTTLTVSS
VL: DVVMTQTPLSLPVSLGDQASISCRSSQTIVYSNGNTYLYWYLQKPGQSPKLLIYRVSNRFPGVPDRFSGSGSGTDFTLKISGVEAEDMGVYYCFQGTHVPFTFGSGTKLEMK
notes: Chimeric: mouse VH and VL with human IgG1 heavy chain and kappa light chain constant regions

Key:
human LAG-3(ECD)-mFc = molecular target: T1, human LAG-3(ECD)-mFc; assay: ELISA: chimeric IgG1 B12 with hLAG3-mFc in solution, captured on anti-human IgG, anti-mouse IgG-HRP
Procedure: (§1) FIGS. 5A-5D show the effect of competition peptides on LAG-3 binding to anti-LAG-3 mAbs. […] B5/IgG4 was preincubated with a competition peptide for 30 minutes. Then human LAG-3 extracellular domain (ECD) fused to mouse Fc (hLAG3-mFc) was added (the final peptide concentration was 600-fold that of hLAG3-mFc) and the mixture was incubated for 60 minutes before being added to an ELISA plate coated with anti-human IgG. The incubation was carried out at 4° C. overnight. After washing, the hLAG3-mFc bound to the immobilized B5/IgG4 on the ELISA plate was detected by adding anti-mouse IgG conjugated to horseradish peroxidase (HRP) and incubating for 60 minutes. Then, after washing, the ELISA was developed using One-step Detection Solution and measured as the absorbance at 450 nm.
Anti-human IgG in carbonate coating buffer was coated on an ELISA plate at 4° C. (50 μL/well at 1 μg/mL) overnight. […] The plate was washed and the binding of hLAG3-mFc to the immobilized anti-LAG-3 mAb was detected by adding anti-mouse IgG conjugated to horseradish peroxidase ([…]) (ThermoFisher Scientific, Cat#: A16084; Waltham, Mass.) and incubating for 60 minutes.

B5/IgG4 = molecular target: T2, B5/IgG4; assay: ELISA peptide competition: peptide preincubated with B5/IgG4, competitor hLAG3-mFc; capture on anti-human IgG, anti-mouse IgG-HRP
T2 construct: Chimeric: mouse VH and VL with human IgG4 heavy chain and kappa light chain constant regions; also called B5 (human IgG4 heavy chain and kappa light chain chimeric)
Procedure: as §1
(§2) Anti-human IgG in carbonate coating buffer was coated on an ELISA plate at 4° C. (50 μL/well at 1 μg/mL) overnight. In each well of a separate plate, a chimeric version of a given anti-LAG-3 mAb (50 μL/well at 1.4 nM) and a competition peptide (50 μL/well at various concentrations as indicated in the figures) were mixed and incubated for 30 minutes at room temperature. Then human LAG-3 extracellular domain (ECD) fused to mouse Fc (hLAG3-mFc) was added to each well (50 μL/well at 2 nM) and the final mixture was incubated at room temperature for 60 minutes before added to the ELISA plate (50 μL/well) for another 60-minute incubation. The final incubation after adding the mixture to the ELISA plate was also performed at 4° C. overnight in some assays. The plate was washed and the binding of hLAG3-mFc to the immobilized anti-LAG-3 mAb was detected by adding anti-mouse IgG conjugated to horseradish peroxidase ([…]) (ThermoFisher Scientific, Cat#: A16084; Waltham, Mass.) and incubating for 60 minutes.

[1] = molecular target: B1; assay: ELISA peptide competition: peptide preincubated with chimeric IgG1 B12, competitor hLAG3-mFc; capture on anti-human IgG, anti-mouse IgG-HRP
Procedure: as §1, §2

[2] = molecular target: T3, BG29 (human IgG4 heavy chain and kappa light chain chimeric); assay: ELISA peptide competition: peptide preincubated with chimeric IgG4 BG29, competitor hLAG3-mFc; peptide at 200-fold hLAG3-mFc; capture on anti-human IgG, anti-mouse IgG-HRP
T3 construct: Chimeric: mouse VH and VL with human IgG4 heavy chain and kappa light chain constant regions; also called chimeric BG29
T3 sequence (VH, as listed by the source, chain 1 of 2): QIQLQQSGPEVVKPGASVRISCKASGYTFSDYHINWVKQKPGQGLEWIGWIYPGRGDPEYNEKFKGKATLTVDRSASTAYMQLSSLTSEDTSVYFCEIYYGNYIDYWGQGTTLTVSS
T3 sequence (VL, as listed by the source, chain 2 of 2): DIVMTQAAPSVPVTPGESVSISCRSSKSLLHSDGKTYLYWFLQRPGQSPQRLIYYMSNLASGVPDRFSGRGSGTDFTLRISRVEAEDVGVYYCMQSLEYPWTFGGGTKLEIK
Procedure: as §1, §2

[3] = molecular target: B1; assay: ELISA peptide competition: peptide preincubated with chimeric IgG1 B12, competitor hLAG3-mFc; peptide at 600-fold hLAG3-mFc; capture on anti-human IgG, anti-mouse IgG-HRP
Procedure: as §1, §2

B7/IgG4 = molecular target: T4, B7/IgG4; assay: ELISA peptide competition: peptide preincubated with B7/IgG4, competitor hLAG3-mFc; final incubation 60 min at room temperature; anti-mouse IgG-HRP
T4 construct: Chimeric: mouse VH and VL with human IgG4 heavy chain and kappa light chain constant regions; also called B7 (human IgG4 heavy chain and kappa light chain chimeric)
T4 sequence (VH, as listed by the source): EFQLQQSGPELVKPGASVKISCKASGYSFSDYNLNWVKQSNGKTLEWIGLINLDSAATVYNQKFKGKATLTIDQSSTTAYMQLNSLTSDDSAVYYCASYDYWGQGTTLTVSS
Procedure: B5/IgG4 was preincubated with a competition peptide for 30 minutes. Then human LAG-3 extracellular domain (ECD) fused to mouse Fc (hLAG3-mFc) was added (the final peptide concentration was 600-fold that of hLAG3-mFc) and the mixture was incubated for 60 minutes before being added to an ELISA plate coated with anti-human IgG. The incubation was carried out at 4° C. overnight. After washing, the hLAG3-mFc bound to the immobilized B5/IgG4 on the ELISA plate was detected by adding anti-mouse IgG conjugated to horseradish peroxidase (HRP) and incubating for 60 minutes. Then, after washing, the ELISA was developed using One-step Detection Solution and measured as the absorbance at 450 nm.
The assay condition is the same as in FIG. 5A except that the final incubation of the mAb, the competition peptide, and hLAG3-mFc on the ELISA plate was performed at room temperature for 60 minutes instead of incubation at 4° C. overnight.
Anti-human IgG in carbonate coating buffer was coated on an ELISA plate at 4° C. (50 μL/well at 1 μg/mL) overnight. In each well of a separate plate, a chimeric version of a given anti-LAG-3 mAb (50 μL/well at 1.4 nM) and a competition peptide (50 μL/well at various concentrations as indicated in the figures) were mixed and incubated for 30 minutes at room temperature. Then human LAG-3 extracellular domain (ECD) fused to mouse Fc (hLAG3-mFc) was added to each well (50 μL/well at 2 nM) and the final mixture was incubated at room temperature for 60 minutes before added to the ELISA plate (50 μL/well) for another 60-minute incubation.

| binding result (B5/IgG4) | binding result (B7/IgG4) | Binder | further results |
| --- | --- | --- | --- |
|  |  | B1 | binding result (human LAG-3(ECD)-mFc): binds |
| no binding (tested: 600-fold hLAG3-mFc) |  | QPDSGPPAAAPGHPL (also called peptide Q15) [Q15] | binding result [1]: no binding (tested: 600-fold hLAG3-mFc) |
| no binding (tested: 600-fold hLAG3-mFc) |  | PAAAPGHPLAPG (also called peptide 3-14) [3-14] | binding result [2]: binds; binding result [3]: binds |
|  | no binding (tested: 600-fold hLAG3-mFc) | SSWGPRPRRY (also called peptide 21-30) [21-30] |  |
|  | no binding (tested: 600-fold hLAG3-mFc) | PSSWGPRPRRY (also called peptide 20-30) [20-30] |  |
|  | no binding (tested: 600-fold hLAG3-mFc) | PHPAAPSSWGPR (also called peptide 15-26) [15-26] |  |
| no binding (tested: 600-fold hLAG3-mFc) |  | QPDSGPPAAAPGHP (also called peptide Q14) [Q14] | binding result [1]: no binding (tested: 600-fold hLAG3-mFc) |
